The text below walks through data of patent US20190248877A1 (Hoffmann-La Roche, published 2019).

Common to all, as to assay: SPR ProteOn XPR36, biotinylated antigen on NLC chip, Fab as analyte, 25 C
For experiment [1], the target named is GST huTNCfn5 mu A124 BC hu fn6 B (human fn5 and fn6, murine extra splice …, biotin on the C-terminal avi-tag (BirA, site-specific)). Here is the method:
(§1) Immobilization of antigens (ligand): Recombinant antigens were diluted with PBST (10 mM phosphate, 150 mM sodium chloride pH 7.4, 0.005% Tween 20) to 10 μg/ml, then injected at 30 μl/minute in vertical orientation. Injection of analytes: For ‘one-shot kinetics’ measurements, injection direction was changed to horizontal orientation, two-fold dilution series of purified Fab were injected simultaneously along separate channels 1-5, with association times of 200 s, and dissociation times of 240 s, respectively. Buffer (PBST) was injected along the sixth channel to provide an “in-line” blank for referencing. Association rate constants (kₒₙ) and dissociation rate constants (koff) were calculated using a simple one-to-one Langmuir binding model in ProteOn Manager v3.1 software by simultaneously fitting the association and dissociation sensorgrams. The equilibrium dissociation constant (KD) was calculated as the ratio koff/kₒₙ.

For experiment [2], the target named is T1, GST huTNC fn5 A1234 fn6 B (human, biotin on the C-terminal avi-tag (BirA, site-specific)).
T1 chain: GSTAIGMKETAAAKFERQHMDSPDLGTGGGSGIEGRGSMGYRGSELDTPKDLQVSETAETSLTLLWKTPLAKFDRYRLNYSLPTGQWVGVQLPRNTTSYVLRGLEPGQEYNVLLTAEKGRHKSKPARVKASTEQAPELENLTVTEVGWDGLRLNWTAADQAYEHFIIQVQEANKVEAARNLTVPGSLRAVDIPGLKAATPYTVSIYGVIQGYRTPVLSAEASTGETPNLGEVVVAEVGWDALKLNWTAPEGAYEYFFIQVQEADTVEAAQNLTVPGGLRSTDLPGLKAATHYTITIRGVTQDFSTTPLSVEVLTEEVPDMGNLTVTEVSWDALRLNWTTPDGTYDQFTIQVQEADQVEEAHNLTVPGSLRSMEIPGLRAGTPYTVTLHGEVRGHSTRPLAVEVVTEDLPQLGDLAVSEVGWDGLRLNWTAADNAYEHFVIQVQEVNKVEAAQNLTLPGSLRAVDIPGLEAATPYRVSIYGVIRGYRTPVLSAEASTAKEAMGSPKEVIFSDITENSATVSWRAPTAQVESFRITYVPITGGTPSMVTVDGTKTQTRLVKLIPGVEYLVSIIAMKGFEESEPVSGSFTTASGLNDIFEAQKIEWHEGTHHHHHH
Here is the method:
as §1

A further experiment addresses T2, huTNC A1 B (human).
T2 chain: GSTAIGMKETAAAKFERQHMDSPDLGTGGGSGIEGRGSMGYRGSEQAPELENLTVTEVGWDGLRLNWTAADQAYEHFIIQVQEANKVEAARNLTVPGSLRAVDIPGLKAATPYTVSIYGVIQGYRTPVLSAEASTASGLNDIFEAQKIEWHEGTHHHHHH
The protocol: as §1

The target in a further experiment is T3, huTNC A4 B (human, biotin on the C-terminal avi-tag (BirA, site-specific)).
T3 chain: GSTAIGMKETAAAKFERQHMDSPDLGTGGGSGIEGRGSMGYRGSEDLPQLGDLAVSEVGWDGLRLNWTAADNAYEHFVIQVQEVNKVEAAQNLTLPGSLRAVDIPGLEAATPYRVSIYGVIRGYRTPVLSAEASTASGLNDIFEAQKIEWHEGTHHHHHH
Here is the method: as §1

Experiment [3] concerns the target T4, GST huTNC fn5 A1234 BC fn6 B (human, UniProt P24821 984-1798, biotin on the C-terminal avi-tag (BirA, site-specific)).
T4 construct: also called Human GST-fused TnC fn5 A1234 BC fn6
T4 sequence: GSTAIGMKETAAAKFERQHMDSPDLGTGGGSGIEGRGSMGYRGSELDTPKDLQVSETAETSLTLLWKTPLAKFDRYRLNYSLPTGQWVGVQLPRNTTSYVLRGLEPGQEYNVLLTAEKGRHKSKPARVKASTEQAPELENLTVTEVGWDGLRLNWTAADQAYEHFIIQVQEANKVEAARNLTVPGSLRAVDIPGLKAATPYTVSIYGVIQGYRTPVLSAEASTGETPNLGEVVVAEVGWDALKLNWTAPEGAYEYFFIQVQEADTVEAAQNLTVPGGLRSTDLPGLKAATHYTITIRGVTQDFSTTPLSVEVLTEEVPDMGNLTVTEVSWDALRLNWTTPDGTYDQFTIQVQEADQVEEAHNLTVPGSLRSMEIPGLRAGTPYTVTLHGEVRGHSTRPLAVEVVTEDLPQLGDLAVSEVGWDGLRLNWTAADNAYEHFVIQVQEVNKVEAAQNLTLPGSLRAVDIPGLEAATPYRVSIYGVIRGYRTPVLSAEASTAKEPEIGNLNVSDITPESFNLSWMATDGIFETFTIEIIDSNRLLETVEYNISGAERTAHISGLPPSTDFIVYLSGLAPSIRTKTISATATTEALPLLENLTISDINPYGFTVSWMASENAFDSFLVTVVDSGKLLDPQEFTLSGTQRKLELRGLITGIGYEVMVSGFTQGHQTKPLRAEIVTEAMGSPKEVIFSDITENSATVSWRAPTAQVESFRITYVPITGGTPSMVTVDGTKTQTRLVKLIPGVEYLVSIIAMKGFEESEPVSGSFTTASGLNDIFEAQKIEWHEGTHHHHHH
Here is the method:
as §1

B1: anti-TnC clone 18D4 Fab fragment (Fab, V domains shown)
VH: QVQLVQSGAEVKKPGSSVKVSCKASGGTFSSYAISWVRQAPGQGLEWMGGIIPIFGTANYAQKFQGRVTITADKSTSTAYMELSSLRSEDTAVYYCAKGNFYGGLDYWGQGTTVTVSS
VL: DIQMTQSPSTLSASVGDRVTITCRASQSISSWLAWYQQKPGKAPKLLIYDASSLESGVPSRFSGSGSGTEFTLTISSLQPDDFATYYCQQNKKFPSGTFGQGTKVEIK
For orientation: Kd means the concentration at which binding is half-saturated. High values mean weaker binding, low ones tighter binding. Regarding B1, the Kd amounted to 11.2 nM in experiment [1]; 5 nM in experiment [2]; 5.6 nM with huTNC A1 B; 2 nM with huTNC A4 B; 4 nM in experiment [3].
